Experimental findings from patent US20170355953A1 (OSAKA UNIVERSITY, published 2017) are described below.

The experiment has as its target T1, N-terminally TARGET-tagged human afamin (human, UniProt P43652 22-599).
T1 construct: also called hAFM; (TARGET-tagged) afamin; not shown: N-terminal TARGET tag
T1 sequence (looked up): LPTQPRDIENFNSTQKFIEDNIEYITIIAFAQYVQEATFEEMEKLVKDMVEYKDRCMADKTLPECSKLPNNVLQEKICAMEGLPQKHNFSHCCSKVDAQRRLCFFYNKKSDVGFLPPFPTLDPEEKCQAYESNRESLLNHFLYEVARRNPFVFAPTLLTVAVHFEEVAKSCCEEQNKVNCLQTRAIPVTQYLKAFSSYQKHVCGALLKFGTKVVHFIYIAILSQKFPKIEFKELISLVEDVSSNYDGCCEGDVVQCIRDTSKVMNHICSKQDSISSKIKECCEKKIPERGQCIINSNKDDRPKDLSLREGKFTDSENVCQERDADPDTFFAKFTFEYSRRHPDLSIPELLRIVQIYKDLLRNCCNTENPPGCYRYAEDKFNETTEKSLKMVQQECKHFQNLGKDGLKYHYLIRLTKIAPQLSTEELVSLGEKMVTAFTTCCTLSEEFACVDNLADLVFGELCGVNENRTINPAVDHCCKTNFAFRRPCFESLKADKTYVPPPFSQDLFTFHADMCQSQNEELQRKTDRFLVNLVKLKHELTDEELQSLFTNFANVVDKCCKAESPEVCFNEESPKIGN
The experiment is described as follows: co-immunoprecipitation on P20.1-sepharose (TARGET tag on afamin), western blotting with biotin-modified NZ-1. The procedure: The transfected cells of each type were cultured for 90 hours in a serum-free culture medium, and the supernatants were separately harvested. To 1 mL of each supernatant, 20 μL of NZ-1-sepharose or P20.1-sepharose was added, and the mixture was rotated end over end for 1 hour. The sepharose was precipitated by centrifugation, and the supernatant was removed. After the sepharose was washed 3 times with 1 mL of TBS, 30 μL of SDS sample buffer was added, and elution was performed under heating at 95° C. for 2 minutes. The eluate was subjected to western blotting using biotin-modified NZ-1.
A general note: A western blot detects proteins with antibodies after separation by electrophoresis.

B1: N-terminally PA-tagged human Wnt3 (ligand)
chain: GVAMPGAEDDVVGYPIWWSLALGQQYTSLGSQPLLCGSIPGLVPKQLRFCRNYIEIMPSVAEGVKLGIQECQHQFRGRRWNCTTIDDSLAIFGPVLDKATRESAFVHAIASAGVAFAVTRSCAEGTSTICGCDSHHKGPPGEGWKWGGCSEDADFGVLVSREFADARENRPDARSAMNKHNNEAGRTTILDHMHLKCKCHGLSGSCEVKTCWWAQPDFRAIGDFLKDKYDSASEMVVEKHRESRGWVETLRAKYSLFKPPTERDLVYYENSPNFCEPNPETGSFGTRDRTCNVTSHGIDGCDLLCCGRGHNTRTEKRKEKCHCIFHWCCYVSCQECIRIYDVHTCK
As for B1, the binding result is “binds”.
